# Measured values from patent publication US20220332795A1 (ARO BIOTHERAPEUTICS, published 2022).
# Changes are numbered by the printed parent chain.
# B1: SEQ ID NO 192 (designed binder)
# chain: MLPAPKNLVVSRVTEDSARLSWTAPDAAFDSFDIGYTEYGGYGEAIYLSVPGSERSYDLTGLKPGTEYWVLIQGVKGGGSSVPLSAIFTT
# notes: FN3 domain
# B2: SEQ ID NO 121 (designed binder)
# chain: MLPAPKNLVVSRVTEDSARLSWTAPDAAFDSFFIGYLEPQPPGEAIALWVPGSERSYDLTGLKPGTEYNVTIQGVKGGFPSMPLSAIFTT
# notes: FN3 domain
# B3: SEQ ID NO 191 (designed binder)
# chain: B2 chain with A47I, W49A, M82L, S85V, I87S
# notes: FN3 domain
# B4: SEQ ID NO 163 (designed binder)
# chain: B2 chain with A47Y, W49E, M82F, S85K, I87A
# notes: FN3 domain
# B5: SEQ ID NO 151 (designed binder)
# chain: B2 chain with A47Q, M82R, S85Q, I87H
# notes: FN3 domain
# B6: SEQ ID NO 139 (designed binder)
# chain: B2 chain with A47Q, W49G, M82H, S85N, I87N
# notes: FN3 domain
# B7: SEQ ID NO 173 (designed binder)
# chain: B2 chain with F33H, G35V, L37H, Q40R, P42S, A47H, W49Q, M82Y, I87F
# notes: FN3 domain
# B8: SEQ ID NO 123 (designed binder)
# chain: B2 chain with A47Q, M82H, S85G, I87V
# notes: FN3 domain
# B9: SEQ ID NO 142 (designed binder)
# chain: B2 chain with A47G, W49Q, M82H, S85K, I87Q
# notes: FN3 domain
# B10: SEQ ID NO 126 (designed binder)
# chain: B2 chain with A47H, W49H, M82I, S85H, I87N
# notes: FN3 domain
# B11: SEQ ID NO 136 (designed binder)
# chain: B2 chain with A47W, W49H, M82I, S85I
# notes: FN3 domain
# B12: SEQ ID NO 140 (designed binder)
# chain: B2 chain with A47Q, W49E
# notes: FN3 domain
# B13: SEQ ID NO 162 (designed binder)
# chain: MLPAPKNLVVSRVTEDSARLSWTAPDAAFDSFYIAYAEPRPDGEAIKLEVPGSERSYDLTGLKPGTEYSVLIHGVKGGLLSSPLAIFTT
# notes: FN3 domain
# B14: SEQ ID NO 202 (designed binder)
# chain: MLPAPKNLVVSRVTEDSARLSWTAPDAAFDSFDIGYTEYGGYGEAILHVPGSERSYDLTGLKPGTEYWVLIQGVKGGGSSVPLSAIFTT
# notes: FN3 domain
# B15: SEQ ID NO 184 (designed binder)
# chain: MLPAPKNLVVSRVTEDSARLSWTAPDAAFDSFFIGYLEPQPPGEAIDLAVPGSERSYDLTGLKPGTEYSVLIHGVKGGLLSSPLSFTT
# notes: FN3 domain
# B16: SEQ ID NO 187 (designed binder)
# chain: B15 chain with D47S, A49L, G52D, S69N, L71T, H73Q, L79F, L80P, S82M, S85K
# notes: FN3 domain
# B17: SEQ ID NO 115 (designed binder)
# chain: MLPAPKNLVVSRVTEDSARLSWTAPDAAFDSFYIAYAEPRPDGEAIELHVPGSERSYDLTGLKPGTEYSVLIHGVKGGLLSSPLFTT
# notes: FN3 domain
# B18: SEQ ID NO 172 (designed binder)
# chain: MLPAPKNLVVSRVTEDSARLSWTAPDAAFDSFFIGYLEPQPPGEAIVLTVPGSERSYDLTGLKPGTEYNVTIQGVKGGFPSMPLASFTT
# notes: FN3 domain
# B19: SEQ ID NO 111 (designed binder)
# chain: MLPAPKNLVVSRVTEDSARLSWTAPDAAFDSFFIGYLEPQPPGEAIDLGVPGSERSYDLTGLKPGTEYNVTIQGVKGGFPSMPLDPLEAYFTT
# notes: FN3 domain
# B20: SEQ ID NO 130 (designed binder)
# chain: MLPAPKNLVVSRVTEDSARLSWTAPDAAFDSFVIEYFEWTLNGEAIVLTVPGSERSYDLTGLKPGTEYSVQIYGVKGGCLSRPLSAIFTT
# notes: FN3 domain
# B21: SEQ ID NO 109 (designed binder)
# chain: MLPAPKNLVVSRVTEDSARLSWTAPDAAFDSFHISYEEDYTFGEAIYLRVPGSERSYDLTGLKPGTEYRVVIGGVKGGWFSEPLLAAFTT
# notes: FN3 domain
# B22: SEQ ID NO 4 (designed binder, not shown: small tags and cut ends)
# chain: MLPAPKNLVVSEVTEDSARLSWQGVARAFDSFLITYRDQIFAGEVIVLTVPGSERSYDLTGLKPGTEYPVWIQGVKGGSPSAPLSAESTT
# notes: FN3 domain, hit of the apical domain panning
# B23: SEQ ID NO 41 (designed binder, not shown: small tags and cut ends)
# chain: B22 chain with E12R, D38E, S79H, P80L, A82D, E87I, S88V
# notes: as for B22
# B24: SEQ ID NO 53 (designed binder, not shown: small tags and cut ends)
# chain: B22 chain with K6E, D38E
# notes: as for B22
# B25: SEQ ID NO 70 (designed binder, not shown: small tags and cut ends)
# chain: B22 chain with E12R, D38E, S79D, P80L, A82N, E87I, S88F
# notes: as for B22
# B26: SEQ ID NO 84 (designed binder, not shown: small tags and cut ends)
# chain: MLPAPKNLVVSRVTEDSARLSWQGVARAFDSFSILYLELTPKGEAIVLTVPGSERSYDLTGLKPGTEYPVWIQGVKGGSPSAPLSAEFTT
# notes: as for B22
# B27: SEQ ID NO 102 (designed binder, not shown: small tags and cut ends)
# chain: B22 chain with E12R, D38E, S88F
# notes: as for B22
# B28: SEQ ID NO 73 (designed binder, not shown: small tags and cut ends)
# chain: B22 chain with D38E
# notes: as for B22
# B29: SEQ ID NO 28 (designed binder, not shown: small tags and cut ends)
# chain: B22 chain with A26V, D38E, S88F
# notes: as for B22
# B30: SEQ ID NO 5 (designed binder, not shown: small tags and cut ends)
# chain: B22 chain with D38E, P69W, W71Y, Q73W, S79K, A82F, S85R, E87G, S88F
# notes: as for B22
# B31: SEQ ID NO 15 (designed binder, not shown: small tags and cut ends)
# chain: B22 chain with E12R, D38E, Y68C, S88F
# notes: as for B22
# B32: SEQ ID NO 7 (designed binder, not shown: small tags and cut ends)
# chain: B22 chain with E12D, D38E, S88F
# notes: as for B22
# B33: SEQ ID NO 36 (designed binder, not shown: small tags and cut ends)
# chain: B22 chain with D38E, L48P, W71P, Q73A, S79G, E87I, S88F
# notes: as for B22
# B34: SEQ ID NO 32 (designed binder, not shown: small tags and cut ends)
# chain: B22 chain with E12R, D38E, P69G, W71T, Q73A, S79W, P80R, A82K, S85N
# notes: as for B22
# B35: SEQ ID NO 81 (designed binder, not shown: small tags and cut ends)
# chain: B26 chain with S33L, L35T, L37V, T40R, P41H, K42L
# notes: as for B22
# B36: SEQ ID NO 94 (designed binder, not shown: small tags and cut ends)
# chain: B22 chain with D38E, E87I, S88F
# notes: as for B22
# B37: SEQ ID NO 1 (designed binder, not shown: small tags and cut ends)
# chain: MLPAPKNLVVSRVTEDSARLSWTAPDAAFDSFPITYIEAVVLGEAIVLTVPGSERSYDLTGLKPGTEYPVGISGVKGGHNSMPLSAIFTT
# notes: as for B22
# Target: T1, CD71 apical domain (UniProt P02786 189-383, limits assumed)
# T1 construct: domain: Apical domain
# T1 sequence (P02786 189-383 limits assumed): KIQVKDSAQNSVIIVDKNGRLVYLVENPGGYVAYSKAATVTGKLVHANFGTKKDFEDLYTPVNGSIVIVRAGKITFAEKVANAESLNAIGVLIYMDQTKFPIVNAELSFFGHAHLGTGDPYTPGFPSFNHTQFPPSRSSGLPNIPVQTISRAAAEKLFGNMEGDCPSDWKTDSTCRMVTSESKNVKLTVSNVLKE
# Assay: solution ELISA, signal ratio to HSA
row,apical domain:HSA,Binder
1,342,B1
2,348,B2
3,143,B3
4,2.7,B4
5,149,B5
6,121,B6
7,80.4,B7
8,163,B8
9,181,B9
10,137,B10
11,201,B11
12,14.6,B12
13,2.5,B13
14,212,B14
15,0.8,B15
16,1.1,B16
17,0.9,B17
18,12.5,B18
19,0.8,B19
20,0.9,B20
21,0.7,B21

# Target: T2, recombinant biotinylated human CD71 extracellular domain (human, UniProt P02786 89-760, biotinylated)
# T2 construct: extracellular domain; also called hCD71; huCD71 ECD
# T2 sequence (P02786 other isoform, or with tags, fused parts or gaps): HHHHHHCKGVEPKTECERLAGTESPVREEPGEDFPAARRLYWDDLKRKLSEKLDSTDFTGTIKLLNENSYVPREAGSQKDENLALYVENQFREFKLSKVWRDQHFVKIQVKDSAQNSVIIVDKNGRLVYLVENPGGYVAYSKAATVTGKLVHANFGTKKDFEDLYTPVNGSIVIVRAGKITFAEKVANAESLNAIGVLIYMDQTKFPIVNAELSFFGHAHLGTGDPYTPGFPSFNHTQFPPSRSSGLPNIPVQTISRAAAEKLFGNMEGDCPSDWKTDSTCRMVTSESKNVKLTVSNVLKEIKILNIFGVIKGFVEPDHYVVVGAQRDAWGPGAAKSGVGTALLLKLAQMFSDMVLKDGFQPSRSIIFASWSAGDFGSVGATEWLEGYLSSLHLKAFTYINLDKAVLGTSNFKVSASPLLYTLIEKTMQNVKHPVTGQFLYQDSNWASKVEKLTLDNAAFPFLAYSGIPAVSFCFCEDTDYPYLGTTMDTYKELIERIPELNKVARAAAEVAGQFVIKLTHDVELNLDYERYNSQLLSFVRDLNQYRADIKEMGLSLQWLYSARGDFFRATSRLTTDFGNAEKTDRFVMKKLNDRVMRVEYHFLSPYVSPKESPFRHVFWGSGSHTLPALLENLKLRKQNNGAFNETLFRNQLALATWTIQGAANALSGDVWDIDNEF
# Assay: solution ELISA, signal ratio to HSA
row,hCD71:HSA,Binder
1,79.9,B1
2,269,B2
3,119,B3
4,11.5,B4
5,45.2,B5
6,73.8,B6
7,66.5,B7
8,42.7,B8
9,123,B9
10,85,B10
11,155,B11
12,27.9,B12
13,17,B13
14,58.6,B14
15,27.9,B15
16,10.9,B16
17,20.1,B17
18,13.4,B18
19,17.9,B19
20,13.2,B20
21,138,B21

# Target: T3, recombinant biotinylated CD71 extracellular domain (Sino Biologics) with an N-terminal 6His tag (human, UniProt P02786 89-760, biotinylated (site not stated))
# T3 construct: extracellular domain; also called hCD71; huCD71 ECD
# T3 sequence (P02786 other isoform, or with tags, fused parts or gaps): as above
# Assay: primary solution ELISA screen
row,RLU,Binder
1,2.1e+06 RLU,B22
2,1.37e+06 RLU,B23
3,1.27e+06 RLU,B24
4,991000 RLU,B25
5,3.53e+06 RLU,B26
6,444000 RLU,B27
7,1.47e+06 RLU,B28
8,383000 RLU,B29
9,1.73e+06 RLU,B30
10,512000 RLU,B31
11,761000 RLU,B32
12,288000 RLU,B33
13,342000 RLU,B34
14,864000 RLU,B35
15,1.02e+06 RLU,B36
16,1.51e+06 RLU,B37

# Target: T1, CD71 apical domain
# Assay: solution ELISA
row,"Apical domain, RLU",Binder
1,7.58e+06 RLU,B1
2,6.18e+06 RLU,B2
3,4.66e+06 RLU,B3
4,74500 RLU,B4
5,4.04e+06 RLU,B5
6,1.86e+06 RLU,B6
7,1.8e+06 RLU,B7
8,4.78e+06 RLU,B8
9,4.36e+06 RLU,B9
10,4.42e+06 RLU,B10
11,4.77e+06 RLU,B11
12,317000 RLU,B12
13,93100 RLU,B13
14,5.47e+06 RLU,B14
15,120000 RLU,B15
16,77900 RLU,B16
17,150000 RLU,B17
18,353000 RLU,B18
19,113000 RLU,B19
20,106000 RLU,B20
21,28300 RLU,B21

# Target: T2, recombinant biotinylated human CD71 …
# Assay: solution ELISA
row,"hCD71, RLU",Binder
1,1.77e+06 RLU,B1
2,4.77e+06 RLU,B2
3,3.86e+06 RLU,B3
4,313000 RLU,B4
5,1.23e+06 RLU,B5
6,1.13e+06 RLU,B6
7,1.49e+06 RLU,B7
8,1.25e+06 RLU,B8
9,2.97e+06 RLU,B9
10,2.74e+06 RLU,B10
11,3.69e+06 RLU,B11
12,603000 RLU,B12
13,638000 RLU,B13
14,1.51e+06 RLU,B14
15,4.04e+06 RLU,B15
16,796000 RLU,B16
17,3.47e+06 RLU,B17
18,377000 RLU,B18
19,2.41e+06 RLU,B19
20,1.61e+06 RLU,B20
21,5.33e+06 RLU,B21

# Target: T3, recombinant biotinylated CD71 …
# Assay: primary solution ELISA screen, signal on hCD71 over HSA
row,hCD71:HSA,Binder
1,12,B22
2,12,B23
3,40,B24
4,10,B25
5,28,B26
6,11,B27
7,73,B28
8,28,B29
9,39,B30
10,35,B31
11,29,B32
12,60,B33
13,75,B34
14,88,B35
15,12,B36
16,96,B37
